Measured values from the NTF2 design screens of Basanta et al. (2020).

Assay: protease stability score; higher = more stable; yeast display proteolysis, trypsin and chymotrypsin;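 note: relative to predicted unfolded state with 0 unfolded-like and 1 meaning tenfold more protease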

| Sequence | protease stability score |
| --- | --- |
| EEDDRDLEDLLTKLDSAIQTGNWEILHHLIDPHARSHYNGRDFHGWRDLEFLLRIIVEEIRLDTVDMKHHEFYGDKMRLETTLTGEVNGQKTEFTTVLIYLKIDGKWVIHNFEVR | 0.729 |
| EEDEEHIRKVIETFREMSETGDEDWSERMADPNARLIVGNKEFHGRERFNEWNRELTERIDHFEVRIRDFEIQGDKLILHVRITIIINGKDIETESHIIMKKVDGRWFMHSLHHK | 0.752 |
| EEDEEITKLYLEIILHIWLTGNEEELLRMFDPNARVDINGVINIGREDLLKRFHEHWRKYGAKHIRVRDIKFHIFNGVIYINLHLELIVGDKTFHVHLHMRSRKVDGRWHTHEFEERIN | 1.69 |
| EEDEEVAYHFMEEWFHYVHTGNEEMLERMLDPDVKLTFDGKEFHGRETVLRAIIEWRIEHVRIKDFRFKVINGRAEIRLDGERRGQIDGVKRETRIIIEINVHKVDGKWKIERVELHTL | 2.1 |
| EEDEEYLRKHYTDLKHALETGDEDRIMELFDPHVRIDDEDHNLHGREELFRWLHDLGIDHHELRIDDFKIDGDKVSIDGHLRVIVNGRDIHFRTIIRIKKVNGQWRLTHLEIR | 1.94 |
| EEDEHFAESYAEIMIHSWITGNEDLFEHLADPNWRLRVGDKEFHGREEATEFLIEFYERIDHFEIHIHDMKNIGEKLFIDGELNIHVNGRTIRHHTEIVIYTINGKVKSEEVRIK | 1.95 |
| EEDEKTAEEMMHIWIKYLMTGNEERLYKLVDPNARIEFNGRTDHGRESFTKFLRELGIKHSHIEEIRWDVQGEKVILTLHGRLDVNGVDRSNEILIIAEKVNGRWRVESVHLHLR | 1.27 |
| EEDFRLVDKFIKDFWKSFRTGDEDLFKKYLDPHVQLEVNGQEIHGREQLSRVLVELIIEFGVDHVEFRLHDWHIYDGQAEHHTHVRLKYGDKNVRRTLHIFMLKVDGRWILESMVIR | 1.26 |
| EEDHEIVEKMLKMLFHSWHTGDEKLFKTLVDPNAKFVIGDKTFHGREFYKFLHDRFDHFRMHDITVRKVEHFDGRLIAHVEIHWRLHIGDKTETEVTESHIIIEKIDGKWRNRSIIVH | 1.76 |
| EEDHSEVERRLEIILHKWETGDERILHHYLDPHAKFIINGREYHGRENALEHWVKSEEDLGVKHERLREYDFRYQGDKVELHTEIELHVGNKVFDIHIIIIARKVNGRWVIEEVRLEFR | 1.23 |
| EEDKDWAEWAMRLFVELLFTGDEERLNHFLDPHVRVEFNGRDLHGREMLEKLLELMGIDHIQFKHIELRVIDGQVHLHIDGFADIDGRTHRIRIHMHFEKINGKWRFHSVKFEHK | 1.39 |
| EEDKEDAKKAAEISSHSWETGDEDHLTKLFDPNVRITIGDKELHGMSLLHTFLREWGISNVDFRLHHIDVQGEKLKVDGILNVNGRHTKVTLHYEKINGKWVIKEIIII | 1.26 |
| EEDKETAEHFSRVLHENWETGDEHRELLYMDPNVRTDFNGVDAVGREEFHKLVHHLLTHIRMRSLHIRKVHIQGEYLHIEGELNTEVNGREVVLEMRITSLKINGRWITHSMHFR | 0.304 |
| EEDLEHILELSEYFIRAWSTGDWDTIHKYADPHVRSDINGVESHGMEEMIRVYEEIRVTIEHVHYDHVTVQGEKLIVDGRMDYRVDINGKKKEHRTRVEIHVDVVNGRIKSFVINYR | 1.23 |
| EEDQEIFEQAMRELINSNLTGNEHRMQELADPHVRLIVGDKTYIGRESIWRFLFEWRIDHIEIRSYDIQGDKVHVDIEVHMRYGDKSTVSRMELRAEKVNGRWHIHFIRIH | 1.75 |
| EEDQKMLEMVFRIILDLWITGDFDLIERLLDPDVRLDSKIGDKTVHHHGREEVAKHLFHIRIEDFIIHRVHVQGDKITINGELDGHFNGKRFNSEIHIHYVVINGRIRRLSFEEN | 2.2 |
| EEDREHAREILRQLHHWFMTGDEEKWSKLMDPDARHHIHVGDKHSEYHGREEVIRFLRELIRHWRIDEVRIRRLHSIDGRVHSDIIVDGQVDGRHDRRDYELRVSVVDGRLKEVTIIVH | 1.07 |
| EEDREWVERIIRHYREAELTGDEDRMKELVDPNTRFHIDGVVYHGMDEWTRYVRELRMRSRTRVHQVRVIDGRIEADFEYEIHIEINGVQIDRRQEVILIFKKVNGKWIVERVIVV | 1.93 |
| EEDRKHAEHVFELLMEVLLTGDWKMSRHLFDPNARIEIDGVESHGWEFIYRLLRFIWEHLGIKVRDMKIRRFDVINGVAHFDGELRLHVDGVEIVLEIRLNIFVINGRLKEVHLKRT | 1.42 |
| EEDRNDVEDFLRMFRTALTTGDEHILEHLADPNTRVDINGKEWHGWHHVSELHKKHLEDLGADHVEFRVHDFRIIGNKVHVDSRLIEHQGDKILIINTIIIQLKINGRWVIHELRFR | 0.988 |
| EEDRRMVEDAIRIFLKSLRTGDEESLTRMVDPHVKYHQGEYHMHGREELVRYFAERWEELGVENINTDMRPTHIEFQGEKIIIMGRYHLHVNGRESHTRIEFIATKIDGQWRLHKIRFE | 1.53 |
| EEDSEMAREISESILRMIKTGDERHFMRLLDPHVKIDINGREHHGRHAATHQLRETSEKFGFDRITVRLESVHVQGEYVNINGRVEQGDFHLTLHFHFRKIDGRWVMDSVHIV | 0.559 |
| EEEAAHQFNKWLSLMKHGNEHKASEMLDKDAHIKVGDKTLQGREDVQRDVRRRKEELKFSMTIVDYKDHGDKARLTVEQTNDHNGRPRTRRANVTVHVSNGRVKEIVINDDS | -0.16 |
| EEEDDVLHEFLREFIHFFSTGDFDHIIEMLDPNTQQHVGDKINIGREEWKHWLKFHLDRLGVDQVRVHVRRVRFFNGRVELNIELRQGDYVFDARILALKVDGRWLLESVEIK | 2.82 |
| EEEDEWSREAVEFFKRMVETGDEDLQETLADPNARLIQGDKDEHGRHVLSEWMHRMGVDHIRFHHIDVQGDKVRLDFTMRVNGRQIHVKINNMKVNGQWRIKSVHLR | 0.537 |

| Sequence | protease stability score |
| --- | --- |
| EEEDREFEERWKEFEHAMRTGDEDSLEENLDPNVRFLFDGQEIVGRELTSKFIAEWLRSLGVEKVTIFMRRFHVIGDKVTVDGAFEVNGVHIRTIVYSKKVNGRWFNKSEEFR | 0.733 |
| EEEDRIFKEARRLLEYVSETGDETTLKKLVDPHARTHIGDKLLHGREWLHDLLRKAGEDRFHFIIHHVDLQGDKIQMFGQLVIGDKLIHVEIIVNKIDGRWFVESIKID | 0.889 |
| EEEEEDARRASKIFYHNFLTGDEQNLLKLADPHVLLIINGVHFHGWERYKKWEEERRDKFKNVRLELEDMDVEVIGDKIESIIHLRVDIGDKRIHMEVIFIIEKVDGRWKLRSQEVRIE | 1.03 |
| EEEEEELLELLKRLWHAKSTGDEETTEKMADPNARFIINGREVHGRHMLNHLVKHLREEIKHVHIHRVSVVNGKAKMDTEVNVELEYNGVTFIIRTRVEIDTVVIDGRFHSVSIEIR | 1.12 |
| EEEEEFLRIMIELFLRTVKTGDEDAFNKLADPNVKSNINGVTLHGMERHHEWLRIELEKAGVERVDTRLDDKNIIDGRVIVHGTMFYNGRTITVHNIWHKINGRWVLETIEIR | 1.6 |
| EEEEEHMEHMMRLTLQLFKTGDEETFIDLLDPNVKVHINGVTVHGWDRLIRVKEMIDKEIRFRDFIIHHIRVVDGRAEMEGTVTGDVNGQSRIRDWRSILVVIDGKIKSISWQFN | 2.27 |
| EEEEEKQERALRWFLHIIETGNEELLHRLLDPNVQVEIGDKRFHGWKHLLMVFNDLGVKHVELRDFTIINGVIRNEILLRVGDKENLTILILRKVDGKWQLERFNLQ | 1.79 |
| EEEEENAKQFFHIWERSMRTGDEKTLHELADPHVRAVIGDKHHIGREEFHEVIRQTMEHIRVDDMILHTIMVYDGKVEILGRLVVRVGDKTHEVHVKIQVEKINGRWLLTELHIK | 0.074 |
| EEEEESVQRAMERILHALQTGDWHTLSRMADPHVKLLVNGVELHGMEKIEEFLKKLLEELGVDKIDVRLHDFHTFNGVVHVDVRSHFNGRTHREEWVLLKVNGRWSLKEVRTE | 1.44 |
| EEEEKEADEEVRIMIKSLYTGDEDTVHEMADPNALVKVGDKTIHGMHLFLHTWIRRMEKHGIRVEVRLDDLEIQGEKIHIHLTLIYRFNGKDYPIEFEIHVNKINGQWRVSEIIEI | 1.25 |
| EEEEKEIKDLLREIFEMIVTGDWRLIRENMDPNARMEVGDKEVHGRDHVIHHLHNLGFKHIKEKDINVQGEKISIHGHVDVNGRSRHVDFIAHKVNGKWLYKSFHFH | 0.826 |
| EEEEKHAKHVAKEFLRLLFTGNEHRLKEYLDPNVRLDVNGQEFHGWEEIVKWLREIRFEDSRLHRIRVVGDKIDIDGELDGVINGRRVDRRSIIILFVVDGRYTEVTYRNI | 1.26 |
| EEEEKHEREMAKIMLDVLRTGDEELFERMFDPNTRYEVGDKILHGRHEVLRNWLEMIKKFKNARFITRHVHVFNGVLHINIEVRFDGRTHEYHIDLFFWDGRFKEVRVESH | 1.54 |
| EEEEKMARKMIKDIIENFRTGDWDLMETLADPDVRLHFNGRDYHGREEFLKIERTRFEKVPNVRETERNVTWRNFDGRLELEIHTEHIINGVRIHVLLIFTTEKINGRWSMKSIEIHEK | 0.704 |
| EEEEKVEHDLLRLFAEALSTGNEHIMAELLDPHVRIIVNGKHNIGRETRKTFIEHIRVRSEDVRIRTIEVQGDKIITDSEMDIILDFDGVRTTTTVEVQIIIWKYNGKWYIKMVKFK | 1.36 |
| EEEEQHMKEMAHIFIELMETGDEERLHKYFDPNWRFRIGDKHHHGRETYIHWLHQLGVDKVKVHLRHLDFQGDKLRIDSEREFDGKIEKIDIILIKFNGRWIINEIRVD | 1.29 |
| EEEERESEEKFRLLLELLRTGDEEILKHMADPNTKIVINGVDLHGWKEWHRIMRRFKNVTIRFKELWVYGDKAQARVEFDIDGKSFEMELHFVVINGRLKSIHVHSH | 2.11 |
| EEEERILFEEMEHLLHNFLTGNEEHLHELIDPRVRILIGDKDIHGMELHANIWKKVKGIKEEYHVHRVKLYNGRNEMDTEVRRVIDGQELSVRTKIIFDVVDGKLKSAEIRFH | 0.771 |
| EEEERVAVEFFRTLQESIRTGDEKTVKELADPNTRLDVGDKHFHGMEEIRKYWLRFDHFERHTLREEDFDVVNGVMSVHGRLEVHGRYNGQRVHTHYHMVIFVLKVNGRWKITEIKLH | 1 |
| EEEEWLVKIAIRILIETFRTGDFHLWEELADPNTRLRIGNFEFHGREEVLHSLIEMRIHSVHIEDHKVIDGRLHVDSRLLGTFNGQHINRETRLISLKINGVWFIKSFEFV | 0.648 |
| EEEHELTELLSRLWVHAIRTGDEDTLKELMDPNTRFEINGKEHIGRERLTDAFRELRVHRLHIEHIEIQGDKVLMETRSDIEINGVRRETETRIILHVVNGRIKEVRVHIK | 1.84 |
| EEEHKFITDIVRLFQELLRTGDFTLLRRMIDPHARIDINGVENHGWEKTARHIWELGMTRESEVRIRDVKVYDGRVEIDIEVEIHNDYNGRKIVVRHEIILFVIKFNGRWNLEQIHIK | 1.65 |
| EEEKDWSTEVLRLFLEMMATGDWEFLARFLDPHVKLEVDGREFHGREEVSRSLEEHFRKFGADHVEIRLRRIREVDGRLHVDGRLILHIGDKTIERDMQVHSYKIDGQWSIHEVTHK | 1.45 |
| EEEKEHAREIVDILWELHETGDEEIFRTLADPDVRLLIGDKKIVGREEIWRKLKEVHKHWRLKSYHTRHLHVQGEKVTIDGVINGVYDGVDTSIDVNIQIFTFNGRFRSMREHYS | 0.317 |
| EEEKEHLTHMAKLFHDLTQTGDEHLFNHLADPHVKIDVHIGDKDLHFHGREEFLWWILEIIEQWRIEFDLRDTIPVNGKVHVKTDIKINVNGREHRIETRLHLVIVNGKLKESEIRVS | 1.69 |
